Assay results: publication PMC3902948 (Nucleic Acids Research, 2013)

B1: Strep-Ntr1(1–120) (domain or fragment, S. cerevisiae, UniProt Q06411 1-120, looked up)
chain: MEDSDSNTDKKFFFKKRRIDSYNYSDEEDNNSSMNSDMTYTNDALKTSSGNAPTISKLTKTYGIGAKLLSSMGYVAGKGLGKDGSGITTPIETQSRPMHNAGLGMFSNTNSSNYHSENED
B2: Ntr1(51–110) (domain or fragment, S. cerevisiae, UniProt Q06411 51-110, looked up)
chain: NAPTISKLTKTYGIGAKLLSSMGYVAGKGLGKDGSGITTPIETQSRPMHNAGLGMFSNTN

Biological target: Prp43-Strep (S. cerevisiae, UniProt P53131 1-767)
Sequence (P53131 whole entry): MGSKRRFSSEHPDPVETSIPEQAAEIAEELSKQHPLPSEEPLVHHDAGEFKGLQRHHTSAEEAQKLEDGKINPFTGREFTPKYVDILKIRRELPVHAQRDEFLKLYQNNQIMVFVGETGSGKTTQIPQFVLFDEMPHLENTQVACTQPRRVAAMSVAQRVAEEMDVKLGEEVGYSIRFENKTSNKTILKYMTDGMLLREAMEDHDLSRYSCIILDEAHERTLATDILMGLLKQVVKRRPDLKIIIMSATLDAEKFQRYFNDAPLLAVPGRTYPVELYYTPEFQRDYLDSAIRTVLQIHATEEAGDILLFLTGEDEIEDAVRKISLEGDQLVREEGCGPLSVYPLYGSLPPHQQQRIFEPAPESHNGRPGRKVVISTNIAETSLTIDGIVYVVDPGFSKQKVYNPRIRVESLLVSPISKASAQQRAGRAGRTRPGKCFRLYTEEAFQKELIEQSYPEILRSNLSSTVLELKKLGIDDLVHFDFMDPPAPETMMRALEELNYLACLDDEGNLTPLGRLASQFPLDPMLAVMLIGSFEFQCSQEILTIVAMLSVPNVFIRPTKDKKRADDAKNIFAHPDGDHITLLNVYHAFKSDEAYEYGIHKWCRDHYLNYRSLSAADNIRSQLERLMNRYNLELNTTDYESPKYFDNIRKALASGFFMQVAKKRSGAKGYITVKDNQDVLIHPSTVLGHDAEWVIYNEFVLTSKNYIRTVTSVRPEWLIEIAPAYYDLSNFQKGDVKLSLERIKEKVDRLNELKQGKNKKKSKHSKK
Assay: titration of the ATPase activity of Prp43

| Kd [nM] | Binder |
| --- | --- |
| 1490 ± 50 | B1 |
| 2240 ± 110 | B2 |
